Experimental data reported in the supplement of paper PMC10567573.

B1: TRIB1 (parent)
chain: EIGTSDQIVPEYQEDSDISSFFC

Variants of: B1
Experiment: protein stability index of a GFP-peptide fusion (GPS, HEK-293T) (PSI 1-6); higher = more stable
Details: c terminus: native
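Note: lentivirally expressed fusions sorted by FACS into six bins by GFP to DsRed ratio, PSI derived from sequencing read proportions per bin multiplied by bin number.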

Point of comparison: EIGTSDQIVPEYQEDSDISSFSC, protein stability index 4.48. Against it:
- EIGTSDQIVPEYQEDSDISSWFC — lower, 2.89
- EIGTSDQIVPEYQEDSDISSPFC — higher, 4.6
- EIGTSDQIVPEYQEDSWISSFFC — lower, 2.42
- EIGTSDQIVPEYQEDSEISSFFC — lower, 2.61
- EIGTSDQIVPEYQEDSLISSFFC — lower, 3.2
- EIGTSDQIVPEYQEDSCISSFFC — lower, 2.92
- EIGTSDQIVPEYQEDSFISSFFC — lower, 3.2
- EIGTSDQIVPEYQEDSAISSFFC — lower, 3.21
- EIGTSDQIVPEYQEDSQISSFFC — lower, 2.94
- EIGTSDQIVPEYQEDSNISSFFC — lower, 3.26
- EIGTSDQIVPEYQEDSVISSFFC — lower, 2.87
- EIGTSDQIVPEYQEDSYISSFFC — lower, 2.99
- EIGTSDQIVPEYQEDSTISSFFC — lower, 3.29
- EIGTSDQIVPEYQEDSRISSFFC — lower, 3.48
- EIGTSDQIVPEYQEDSSISSFFC — lower, 3.13
- EIGTSDQIVPEYQEDSKISSFFC — lower, 4.29
- EIGTSDQIVPEYQEDSPISSFFC — lower, 3.12
- EIGTSDQIVPEYQEDSGISSFFC — lower, 4.13
- EIGTSDQIVPEYQEDSIISSFFC — lower, 3.28
- EIGTSDQIVPEYQEDSHISSFFC — lower, 3.47
- EIGTSDQIVPEYQEDSMISSFFC — lower, 3.16
- EIGTSDQIVPEYQEDSDISSFMC — lower, 3.16
- EIGTSDQIVPEYQEDSDISSFKC — higher, 5.29
- EIGTSDQIVPEYQEDSDISSFLC — lower, 3.36
- EIGTSDQIVPEYQEDSDISSFEC — lower, 4.3
- EIGTSDQIVPEYQEDSDISSFQC — higher, 4.82
- EIGTSDQIVPEYQEDSDISSFVC — lower, 3.88
- EIGTSDQIVPEYQEDSDISSFRC — higher, 4.7
- EIGTSDQIVPEYQEDSDISSFCC — lower, 3.45
- EIGTSDQIVPEYQEDSDISSFPC — higher, 4.55
- EIGTSDQIVPEYQEDSDISSFTC — the same, 4.48
- EIGTSDQIVPEYQEDSDISSFNC — higher, 4.54
- EIGTSDQIVPEYQEDSDISSFYC — lower, 2.03
- EIGTSDQIVPEYQEDSDISSFGC — higher, 4.79
- EIGTSDQIVPEYQEDSDISSFIC — lower, 4.03
- EIGTSDQIVPEYQEDSDISSFDC — lower, 3.86
- EIGTSDQIVPEYQEDSDISSFHC — lower, 4.3
- EIGTSDQIVPEYQEDSDISSFWC — lower, 1.98
- EIGTSDQIVPEYQEDSDISSFAC — lower, 4.11
- EIGTSDQIVPEYQEDLDISSFFC — lower, 2.65
- EIGTSDQIVPEYQEDHDISSFFC — lower, 2.68
- EIGTSDQIVPEYQEDQDISSFFC — lower, 3.32
- EIGTSDQIVPEYQEDCDISSFFC — lower, 2.41
- EIGTSDQIVPEYQEDIDISSFFC — lower, 2.04
- EIGTSDQIVPEYQEDYDISSFFC — lower, 2.28
- EIGTSDQIVPEYQEDPDISSFFC — lower, 1.86
- EIGTSDQIVPEYQEDKDISSFFC — lower, 3.5
- EIGTSDQIVPEYQEDTDISSFFC — lower, 2.56
- EIGTSDQIVPEYQEDGDISSFFC — lower, 2.9
- EIGTSDQIVPEYQEDFDISSFFC — lower, 2.6
- EIGTSDQIVPEYQEDVDISSFFC — lower, 3.02
- EIGTSDQIVPEYQEDWDISSFFC — lower, 2.27
- EIGTSDQIVPEYQEDNDISSFFC — lower, 2.68
- EIGTSDQIVPEYQEDEDISSFFC — lower, 1.75
- EIGTSDQIVPEYQEDRDISSFFC — lower, 4.11
- EIGTSDQIVPEYQEDADISSFFC — lower, 3.03
- EIGTSDQIVPEYQEDMDISSFFC — lower, 2.45
- EIGTSDQIVPEYQEDDDISSFFC — lower, 2.15
- EIGTSDQIVPEYQEDSDITSFFC — lower, 2.35
- EIGTSDQIVPEYQEDSDIPSFFC — lower, 2.94
- EIGTSDQIVPEYQEDSDIYSFFC — lower, 1.84
- EIGTSDQIVPEYQEDSDICSFFC — lower, 2.38
- EIGTSDQIVPEYQEDSDIVSFFC — lower, 2.72
- EIGTSDQIVPEYQEDSDIHSFFC — lower, 2.89
- EIGTSDQIVPEYQEDSDILSFFC — lower, 2.32
- EIGTSDQIVPEYQEDSDIGSFFC — lower, 2.05
- EIGTSDQIVPEYQEDSDIISFFC — lower, 1.83
- EIGTSDQIVPEYQEDSDIFSFFC — lower, 1.99
- EIGTSDQIVPEYQEDSDIRSFFC — lower, 3.83
- EIGTSDQIVPEYQEDSDIASFFC — lower, 3.16
- EIGTSDQIVPEYQEDSDIDSFFC — lower, 2.67
- EIGTSDQIVPEYQEDSDIESFFC — lower, 2.83
- EIGTSDQIVPEYQEDSDIWSFFC — lower, 1.56
- EIGTSDQIVPEYQEDSDIMSFFC — lower, 1.75
- EIGTSDQIVPEYQEDSDIKSFFC — lower, 4.21
- EIGTSDQIVPEYQEDSDINSFFC — lower, 2.92
- EIGTSDQIVPEYQEDSDIQSFFC — lower, 3.48
- EIGTSDQIVPEYQEDSDISHFFC — lower, 3.57
- EIGTSDQIVPEYQEDSDISMFFC — lower, 2.62
- EIGTSDQIVPEYQEDSDISPFFC — lower, 3.44
- EIGTSDQIVPEYQEDSDISCFFC — lower, 2.49
- EIGTSDQIVPEYQEDSDISFFFC — lower, 2.81
- EIGTSDQIVPEYQEDSDISAFFC — lower, 3.2
- EIGTSDQIVPEYQEDSDISTFFC — lower, 3.07
- EIGTSDQIVPEYQEDSDISEFFC — lower, 2.37
- EIGTSDQIVPEYQEDSDISDFFC — lower, 2.3
- EIGTSDQIVPEYQEDSDISNFFC — lower, 2.83
- EIGTSDQIVPEYQEDSDISYFFC — lower, 2.42
- EIGTSDQIVPEYQEDSDISIFFC — lower, 2.32
- EIGTSDQIVPEYQEDSDISKFFC — lower, 4.34
- EIGTSDQIVPEYQEDSDISLFFC — lower, 1.79
- EIGTSDQIVPEYQEDSDISWFFC — lower, 2.35
- EIGTSDQIVPEYQEDSDISRFFC — lower, 3.89
- EIGTSDQIVPEYQEDSDISVFFC — lower, 2.53
- EIGTSDQIVPEYQEDSDISGFFC — lower, 3.23
- EIGTSDQIVPEYQEDSDISQFFC — lower, 3.21
